Measured values from PMC7041945, “Misfolded proteins bind and activate death receptor 5 to trigger apoptosis during unresolved endoplasmic reticulum stress” (eLife, 2020).

System: CHOP, BiP, and DR5 mRNA in HCT116 cells
Assay: qPCR of UPR target transcripts (CHOP, BiP, DR5)
Assay type: cell-based, Homo sapiens
Conditions: HCT116; for ERO1alpha (386+387) avg. fold induction relative to empty traffo / ERO1alpha (386+387) fold induction relative to empty traffo: melt curves for these primers showed two peaks; for GAPDH avg. fold induction relative to empty traffo / GAPDH fold induction relative to empty traffo: sheet Cq data 2
Description: Cells were grown in 6-well plates and harvested with 0.5 ml of TRIzol reagent (Life Technologies) per manufacturer’s protocol to extract RNA. For cDNA synthesis, 500 ng of total RNA was reverse transcribed with 2 μl of the SuperScript VILO master mix (Life Technologies # 11755050) in a total reaction volume of 10 μl following the manufacturer’s protocol for reaction temperature and duration. The reverse transcription product was diluted to 200 μl with 10 mM Tris-HCl pH 8.2 and used at 1:100 dilution for subsequent RT-PCR reactions.
PCR samples were prepared as described by manufacturer’s protocols from iQ SYBR Green Supermix (BioRad #17088800).
For each experiment, qRT-PCR reactions were set up in triplicate and run using a CFX96 Real Time System (Bio-Rad). Quantitation cycles were determined with CFX Manager 3.0 software (Bio-Rad) and then normalized to GAPDH as an internal control.

[1] = pRK CHOP 31 ng, mean of 3 replicates
[2] = pRK CHOP 62 ng, mean of 3 replicates
[3] = pRK CHOP 125 ng, mean of 3 replicates
[4] = pRK CHOP 250 ng, mean of 3 replicates
[5] = pRK CHOP 500 ng, mean of 3 replicates

B1: pRK CHOP (protein, UniProt P35638 1-169, looked up)
DNA damage-inducible …: MAAESLPFSFGTLSSWELEAWYEDLQEVLSSDENGGTYVSPPGNEEEESKIFTTLDPASLAWLTEEEPEPAEVTSTSQSPHSPDSSQSSLAQEEEEEDQGRTRKRKQSGHSPARAGKQRMKEKEQENERKVAQLAEENERLKQEIERLTREVEATRRALIDRMVNLHQA
modifications: expression plasmid
GAPDH (qPCR CHOP, Sheet1) (pRK CHOP 31 ng, replicate 1): 0.869
CHOP (qPCR CHOP, Sheet1) (pRK CHOP 31 ng, replicate 2): 19.1521
DR5 (qPCR CHOP, Sheet1) (pRK CHOP 31 ng, replicate 2): 0.9212
GADD34 (qPCR CHOP, Sheet1) (pRK CHOP 31 ng, replicate 2): 1.088
GAPDH (qPCR CHOP, Sheet1) (pRK CHOP 31 ng, replicate 2): 1.031
CHOP (qPCR CHOP, Sheet1) (pRK CHOP 31 ng, replicate 3): 20.8362
DR5 (qPCR CHOP, Sheet1) (pRK CHOP 31 ng, replicate 3): 2.023
GADD34 (qPCR CHOP, Sheet1) (pRK CHOP 31 ng, replicate 3): 1.137
GAPDH (qPCR CHOP, Sheet1) (pRK CHOP 31 ng, replicate 3): 1.033
GADD34 (388+389) avg. fold induction relative to empty traffo [1]: 1
GFP avg. fold induction relative to empty traffo [1]: 1.822
ERO1alpha (386+387) avg. fold induction relative to empty traffo [1]: 1.061
ERO1alpha (386+387) fold induction relative to empty traffo (pRK CHOP 31 ng, replicate 1): 0.958
ERO1alpha (386+387) fold induction relative to empty traffo (pRK CHOP 31 ng, replicate 2): 1.088
ERO1alpha (386+387) fold induction relative to empty traffo (pRK CHOP 31 ng, replicate 3): 1.137
GADD34 (388+389) fold induction relative to empty traffo (pRK CHOP 31 ng, replicate 1): 1.125
GFP fold induction relative to empty traffo (pRK CHOP 31 ng, replicate 1): 1.737
GADD34 (388+389) fold induction relative to empty traffo (pRK CHOP 31 ng, replicate 2): 0.859
GFP fold induction relative to empty traffo (pRK CHOP 31 ng, replicate 2): 1.908
GADD34 (388+389) fold induction relative to empty traffo (pRK CHOP 31 ng, replicate 3): 1.016
GFP fold induction relative to empty traffo (pRK CHOP 31 ng, replicate 3): 1.822
GAPDH avg. fold induction relative to empty traffo [1]: 1.0065
GAPDH fold induction relative to empty traffo (pRK CHOP 31 ng, replicate 1): 0.9404
GAPDH fold induction relative to empty traffo (pRK CHOP 31 ng, replicate 2): 0.905
GAPDH fold induction relative to empty traffo (pRK CHOP 31 ng, replicate 3): 1.174
GFP avg. fold induction relative to empty traffo [2]: 1.726
ERO1alpha (386+387) avg. fold induction relative to empty traffo [2]: 1.099
ERO1alpha (386+387) fold induction relative to empty traffo (pRK CHOP 62 ng, replicate 1): 1.074
ERO1alpha (386+387) fold induction relative to empty traffo (pRK CHOP 62 ng, replicate 2): 1.056
ERO1alpha (386+387) fold induction relative to empty traffo (pRK CHOP 62 ng, replicate 3): 1.168
GADD34 (388+389) fold induction relative to empty traffo (pRK CHOP 62 ng, replicate 1): 0.9151
GFP fold induction relative to empty traffo (pRK CHOP 62 ng, replicate 1): 1.604
GADD34 (388+389) fold induction relative to empty traffo (pRK CHOP 62 ng, replicate 2): 1.316
GFP fold induction relative to empty traffo (pRK CHOP 62 ng, replicate 2): 1.747
GADD34 (388+389) fold induction relative to empty traffo (pRK CHOP 62 ng, replicate 3): 1.12
GFP fold induction relative to empty traffo (pRK CHOP 62 ng, replicate 3): 1.828
GAPDH avg. fold induction relative to empty traffo [2]: 1.001
GAPDH fold induction relative to empty traffo (pRK CHOP 62 ng, replicate 1): 0.9597
GAPDH fold induction relative to empty traffo (pRK CHOP 62 ng, replicate 2): 0.9785
GAPDH fold induction relative to empty traffo (pRK CHOP 62 ng, replicate 3): 1.064
CHOP (qPCR CHOP, Sheet1) (pRK CHOP 125 ng, replicate 1): 230.561
DR5 (qPCR CHOP, Sheet1) (pRK CHOP 125 ng, replicate 1): 1.242
GADD34 (qPCR CHOP, Sheet1) (pRK CHOP 125 ng, replicate 1): 1.11
GAPDH (qPCR CHOP, Sheet1) (pRK CHOP 125 ng, replicate 1): 0.8158
CHOP (qPCR CHOP, Sheet1) (pRK CHOP 125 ng, replicate 2): 173.762
DR5 (qPCR CHOP, Sheet1) (pRK CHOP 125 ng, replicate 2): 1.206
GADD34 (qPCR CHOP, Sheet1) (pRK CHOP 125 ng, replicate 2): 1.18
GAPDH (qPCR CHOP, Sheet1) (pRK CHOP 125 ng, replicate 2): 1.045
CHOP (qPCR CHOP, Sheet1) (pRK CHOP 125 ng, replicate 3): 257.78
DR5 (qPCR CHOP, Sheet1) (pRK CHOP 125 ng, replicate 3): 1.064
GADD34 (qPCR CHOP, Sheet1) (pRK CHOP 125 ng, replicate 3): 1.241
GAPDH (qPCR CHOP, Sheet1) (pRK CHOP 125 ng, replicate 3): 1.086
GFP avg. fold induction relative to empty traffo [3]: 8.414
ERO1alpha (386+387) avg. fold induction relative to empty traffo [3]: 1.177
ERO1alpha (386+387) fold induction relative to empty traffo (pRK CHOP 125 ng, replicate 1): 1.11
ERO1alpha (386+387) fold induction relative to empty traffo (pRK CHOP 125 ng, replicate 2): 1.18
ERO1alpha (386+387) fold induction relative to empty traffo (pRK CHOP 125 ng, replicate 3): 1.241
GADD34 (388+389) fold induction relative to empty traffo (pRK CHOP 125 ng, replicate 1): 1.561
GFP fold induction relative to empty traffo (pRK CHOP 125 ng, replicate 1): 9.5448
GADD34 (388+389) fold induction relative to empty traffo (pRK CHOP 125 ng, replicate 2): 1.2889
GFP fold induction relative to empty traffo (pRK CHOP 125 ng, replicate 2): 8.015
GADD34 (388+389) fold induction relative to empty traffo (pRK CHOP 125 ng, replicate 3): 1.475
GFP fold induction relative to empty traffo (pRK CHOP 125 ng, replicate 3): 7.683
GAPDH avg. fold induction relative to empty traffo [3]: 1.018
GAPDH fold induction relative to empty traffo (pRK CHOP 125 ng, replicate 1): 0.7828
GAPDH fold induction relative to empty traffo (pRK CHOP 125 ng, replicate 2): 1.018
GAPDH fold induction relative to empty traffo (pRK CHOP 125 ng, replicate 3): 1.254
GFP avg. fold induction relative to empty traffo [4]: 2.186
ERO1alpha (386+387) avg. fold induction relative to empty traffo [4]: 1.157
ERO1alpha (386+387) fold induction relative to empty traffo (pRK CHOP 250 ng, replicate 1): 1.13
ERO1alpha (386+387) fold induction relative to empty traffo (pRK CHOP 250 ng, replicate 2): 1.17
ERO1alpha (386+387) fold induction relative to empty traffo (pRK CHOP 250 ng, replicate 3): 1.17
GADD34 (388+389) fold induction relative to empty traffo (pRK CHOP 250 ng, replicate 1): 1.613
GFP fold induction relative to empty traffo (pRK CHOP 250 ng, replicate 1): 2.374
GADD34 (388+389) fold induction relative to empty traffo (pRK CHOP 250 ng, replicate 2): 1.727
GFP fold induction relative to empty traffo (pRK CHOP 250 ng, replicate 2): 2.176
GADD34 (388+389) fold induction relative to empty traffo (pRK CHOP 250 ng, replicate 3): 1.397
GFP fold induction relative to empty traffo (pRK CHOP 250 ng, replicate 3): 2.009
GAPDH avg. fold induction relative to empty traffo [4]: 1.005
GAPDH fold induction relative to empty traffo (pRK CHOP 250 ng, replicate 1): 0.8675
GAPDH fold induction relative to empty traffo (pRK CHOP 250 ng, replicate 2): 1.034
GAPDH fold induction relative to empty traffo (pRK CHOP 250 ng, replicate 3): 1.114
CHOP (qPCR CHOP, Sheet1) (pRK CHOP 500 ng, replicate 1): 1691.32
DR5 (qPCR CHOP, Sheet1) (pRK CHOP 500 ng, replicate 1): 1.92
GADD34 (qPCR CHOP, Sheet1) (pRK CHOP 500 ng, replicate 1): 1.469
GAPDH (qPCR CHOP, Sheet1) (pRK CHOP 500 ng, replicate 1): 0.9688
CHOP (qPCR CHOP, Sheet1) (pRK CHOP 500 ng, replicate 2): 1384.67
DR5 (qPCR CHOP, Sheet1) (pRK CHOP 500 ng, replicate 2): 1.724
GADD34 (qPCR CHOP, Sheet1) (pRK CHOP 500 ng, replicate 2): 1.35
GAPDH (qPCR CHOP, Sheet1) (pRK CHOP 500 ng, replicate 2): 0.7886
CHOP (qPCR CHOP, Sheet1) (pRK CHOP 500 ng, replicate 3): 1378.19
DR5 (qPCR CHOP, Sheet1) (pRK CHOP 500 ng, replicate 3): 1.731
GADD34 (qPCR CHOP, Sheet1) (pRK CHOP 500 ng, replicate 3): 1.457
GAPDH (qPCR CHOP, Sheet1) (pRK CHOP 500 ng, replicate 3): 1.212
GFP avg. fold induction relative to empty traffo [5]: 12.178
ERO1alpha (386+387) avg. fold induction relative to empty traffo [5]: 1.425
ERO1alpha (386+387) fold induction relative to empty traffo (pRK CHOP 500 ng, replicate 1): 1.469
ERO1alpha (386+387) fold induction relative to empty traffo (pRK CHOP 500 ng, replicate 2): 1.35
ERO1alpha (386+387) fold induction relative to empty traffo (pRK CHOP 500 ng, replicate 3): 1.457
GADD34 (388+389) fold induction relative to empty traffo (pRK CHOP 500 ng, replicate 1): 2.321
GFP fold induction relative to empty traffo (pRK CHOP 500 ng, replicate 1): 5.396
GADD34 (388+389) fold induction relative to empty traffo (pRK CHOP 500 ng, replicate 2): 2.041
GADD34 (388+389) fold induction relative to empty traffo (pRK CHOP 500 ng, replicate 3): 2.147
GFP fold induction relative to empty traffo (pRK CHOP 500 ng, replicate 3): 5.386
GAPDH avg. fold induction relative to empty traffo [5]: 1.044
GAPDH fold induction relative to empty traffo (pRK CHOP 500 ng, replicate 1): 0.6526
GAPDH fold induction relative to empty traffo (pRK CHOP 500 ng, replicate 2): 1.156
GAPDH fold induction relative to empty traffo (pRK CHOP 500 ng, replicate 3): 1.324
